Data taken from paper PMC9388150 (Proceedings of the National Academy of Sciences of the …, 2022).
Each block holds one molecule with its values, some of them ahead of it.

Assays:
[1] = biological target: CeOSM-3^G444E (C. elegans) (UniProt P46873)
[2] = biological target: full-length TtKin5 kinesin-2 (T. thermophila) (UniProt Q7YUC7)
SEC-MALS = biological target: the molecule itself; test: SEC-MALS

CeOSM-3^G444E (C. elegans), sequence (P46873 whole entry G444E): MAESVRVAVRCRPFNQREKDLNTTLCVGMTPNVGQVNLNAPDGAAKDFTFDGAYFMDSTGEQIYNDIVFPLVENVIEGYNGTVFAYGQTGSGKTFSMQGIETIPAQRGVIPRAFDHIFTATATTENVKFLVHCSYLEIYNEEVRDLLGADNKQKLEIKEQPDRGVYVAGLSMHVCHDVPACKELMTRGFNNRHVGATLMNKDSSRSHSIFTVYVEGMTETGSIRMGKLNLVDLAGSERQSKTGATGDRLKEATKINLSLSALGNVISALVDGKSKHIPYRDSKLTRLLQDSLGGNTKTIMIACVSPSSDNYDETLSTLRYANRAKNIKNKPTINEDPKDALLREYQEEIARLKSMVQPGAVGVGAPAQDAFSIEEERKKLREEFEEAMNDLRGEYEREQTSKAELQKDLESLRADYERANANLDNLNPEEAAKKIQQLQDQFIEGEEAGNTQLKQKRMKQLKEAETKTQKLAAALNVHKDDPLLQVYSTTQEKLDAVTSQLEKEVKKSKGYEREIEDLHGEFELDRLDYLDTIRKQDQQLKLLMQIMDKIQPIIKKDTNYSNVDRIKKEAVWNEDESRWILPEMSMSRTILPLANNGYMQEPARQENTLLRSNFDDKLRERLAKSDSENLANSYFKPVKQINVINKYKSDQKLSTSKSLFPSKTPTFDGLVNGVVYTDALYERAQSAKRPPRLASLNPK

velocity of CeOSM-3^G444E with CeIFT70/52 in single-molecule transport assays [1]: 1.7 µm/s
Molecule: CeIFT70/52 adaptor complex (from UniProt Q8I7G4 1-656)

velocity of TtKin5 with TtIFT70/52 in single-molecule transport assays [2]: 2 µm/s
Molecule: TtIFT70/52 adaptor complex

velocity of TtKin5 with TtIFT70 in single-molecule transport assays [2]: 1.5 µm/s
Molecule: TtIFT70 (natural protein)

B1: full-length TtKin5 kinesin-2 (natural protein, T. thermophila, UniProt Q7YUC7 1-836, looked up)
chain: MSSETVKVMVRARPMNKLEISKGCANIVQVDPQTNQIILSNGKDAEAAKVFTYDYVFPPDIQQQTVYENSAFPLVESVVEGYNGTIFAYGQTGCGKTHSMLGKPNDEVEKGIIPRTFSHIINIVESANDKNFLVRCSYIEIYNEEIHDLLGKDAKARMDLKEYPDKGVFVKDLTMNVVKTVAEMEKWMNIGTENRSVGATAMNKDSSRSHSIFTLYIECSYKVEGDTEDHITAGKLNLVDLAGSERQSKTQATGDRLKEATKINLSLSALGNVISALVDGKSQHVPYRDSKLTRLLQDSLGGNTKTIMIAAISPADYNYEETLSTLRYASRAKNIKNQPKVNQDPKDALLKEYADEIKKLKEMLLKQQAGEQVNFNAVVNGNGQQQPQLAIQHSSSHVMNSSEVKKLKEKNDALNAERQQIEEEVKNKEKLFQQQMQEKLMIEQKLKEVEQKFIVGGTADQDKKKKISQMRNKLKKQMQEHEKIQEELKQKDEEFENLEIKYSSLQEELDATKKKVKKLNQKYKQAQSEIKDLEKEHEIQKEDLLDTIRYQQREVKILMSICQMLLTPDEIEIIKGQGEWQDDYQVYKLPPFYFKQKKLNFPKLPAAQAMDMIDQEKQSREIDFMRQNNNFDNRQNNNHQNGNSHSHSNSIKRIPSGTMDNFEDMNKFQFGNGPAKSNNTSRYNNGFQNGSDEFDLSKYDAGGGNSLHSIQESLKEKNNSPNIRIKKAHKVQQQPEKQRIPNVSLDPIESQRISQQKLMGLQDSHFLEPSFQGGEQRRSKNIQLQPIQARPLSNSQTVMNLNQLNKNNINMNSIDFDQIANKTPNRVKLDKIQVPR
stoichiometry N (SEC-MALS): 2
